Ends that are not written are not given here. * marks the point of attachment. Biotin = O=C1N[C@H]2[C@H](CS[C@H]2CCCCC(=O)*)N1

We go through 2 molecules from US20090149339A1 (published 2009).

Sequence of GST-LIMK2 PDZ domain fusion protein (human LIM domain kinase 2 AA185-275; PDZ domain 1 of 1) (P08515 1-218, tags or fused parts left off): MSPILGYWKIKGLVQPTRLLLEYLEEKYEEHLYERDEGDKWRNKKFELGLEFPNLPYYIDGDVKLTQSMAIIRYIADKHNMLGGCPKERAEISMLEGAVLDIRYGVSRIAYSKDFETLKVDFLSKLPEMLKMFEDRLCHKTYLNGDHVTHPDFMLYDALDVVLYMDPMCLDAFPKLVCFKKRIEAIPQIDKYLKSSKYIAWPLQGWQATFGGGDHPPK
T4 sequence (P08515 1-218, tags or fused parts left off): as above
T13 sequence (P08515 1-218, tags or fused parts left off): as above
Sequence of GST-MPP1 PDZ domain fusion protein (55 Kd erythrocyte membrane protein AA101-186; PDZ domain 1 of 1) (P08515 1-218, tags or fused parts left off): as above
T11 sequence (P08515 1-218, tags or fused parts left off): as above
Sequence of GST-DVL1 PDZ domain fusion protein (human dishevelled segment polarity protein homolog AA248-340); PDZ domain … (P08515 1-218, tags or fused parts left off): as above
Sequence of GST-MINT3 PDZ domain fusion protein (human MINT3 AA11-52; PDZ domain 1 of 1) (P08515 1-218, tags or fused parts left off): as above
T5 sequence (P08515 1-218, tags or fused parts left off): as above
Sequence of GST-TIAM1 PDZ domain fusion protein (T-lymphoma invasion and metastasis inducing protein 1 AA1001-1088); PDZ 1 … (P08515 1-218, tags or fused parts left off): as above
T10 sequence (P08515 1-218, tags or fused parts left off): as above

The first experiment concerns the target GST-MPP1 PDZ domain fusion protein (55 Kd erythrocyte membrane protein AA101-186; PDZ domain 1 of 1) (UniProt P08515 1-218 = GST). Description: A/G assays.
Regarding Biotin-CAISGTSSDRGYGSPRYAEV [CLASP-4 C-terminal PL peptide AA3L-V, biotinylated], the binding result is listed as “no binding”.

On to Biotin-GKGKSIGRAPEASLQDKEGA [CC CKR-2 C-terminal PL peptide AA42L, biotinylated], for which the binding result was “no binding”.

In another experiment the target is T1, GST-41.8 kD PDZ domain fusion protein (hypothetical 41.8 kD protein AA4-85; PDZ domain 1 of 1) (UniProt P08515 1-218 = GST).
T1 construct: also called hypoth
Description: A/G assays.
Take Biotin-GKGKSIGRAPEASLQDKEGA [CC CKR-2 C-terminal PL peptide AA42L, biotinylated]: the binding result is “no binding”.

The target in a further experiment is T2, GST-TAX33 PDZ domain fusion protein (tax interaction protein 33 AA73-162; PDZ domain 1 of 1) (UniProt P08515 1-218 = GST).
T2 construct: also called TX33
T2 sequence (P08515 1-218, tags or fused parts left off): as the sequence (P08515 1-218, tags or fused parts left off) above
Description: A/G assays.
With Biotin-CAISGTSSDRGYGSPRYAEV [CLASP-4 C-terminal PL peptide AA3L-V, biotinylated], the binding result is listed as “no binding”.

As to Biotin-GKGKSIGRAPEASLQDKEGA [CC CKR-2 C-terminal PL peptide AA42L, biotinylated], the binding result is “no binding”.

A further experiment addresses GST-TIAM1 PDZ domain fusion protein (T-lymphoma invasion and metastasis inducing protein 1 AA1001-1088); PDZ 1 … (UniProt P08515 1-218 = GST). Description: A/G assays.
Biotin-CAISGTSSDRGYGSPRYAEV [CLASP-4 C-terminal PL peptide AA3L-V, biotinylated]: the binding result is “no binding”.

Consider Biotin-GKGKSIGRAPEASLQDKEGA [CC CKR-2 C-terminal PL peptide AA42L, biotinylated], for which the binding result is given as “no binding”.

Another experiment deals with GST-NOS1 PDZ domain fusion protein (human neuronal nitric oxide synthase; PDZ domain 1 of 1) (human, UniProt P08515 1-218 = GST). Description: A/G assays.
Sequence of GST-NOS1 PDZ domain fusion protein (human neuronal nitric oxide synthase; PDZ domain 1 of 1) (P08515 1-218, tags or fused parts left off): as the sequence (P08515 1-218, tags or fused parts left off) above
For Biotin-CAISGTSSDRGYGSPRYAEV [CLASP-4 C-terminal PL peptide AA3L-V, biotinylated], the binding result was “no binding”.

On to Biotin-GKGKSIGRAPEASLQDKEGA [CC CKR-2 C-terminal PL peptide AA42L, biotinylated], for which the binding result is on record as “no binding”.

In another experiment the target is T3, GST-TAX2 PDZ domain fusion protein (human tax interaction protein 2 AA54-140; PDZ domain 1 of 1) (human, UniProt P08515 1-218 = GST).
T3 construct: also called TX 2
T3 sequence (P08515 1-218, tags or fused parts left off): as the sequence (P08515 1-218, tags or fused parts left off) above
Description: A/G assays.
Turning to Biotin-CAISGTSSDRGYGSPRYAEV [CLASP-4 C-terminal PL peptide AA3L-V, biotinylated], the binding result is “no binding”.

Regarding Biotin-GKGKSIGRAPEASLQDKEGA [CC CKR-2 C-terminal PL peptide AA42L, biotinylated], the binding result is “no binding”.

The next experiment concerns the target T4, GST-SYN1a PDZ domain fusion protein (alpha1-syntrophin AA96-189; PDZ domain 1 of 1) (UniProt P08515 1-218 = GST).
T4 construct: also called SYN 1 alpha; SYNTR 1 alpha
Description: A/G assays.
Take Biotin-CAISGTSSDRGYGSPRYAEV [CLASP-4 C-terminal PL peptide AA3L-V, biotinylated]: the binding result is “no binding”.

Consider Biotin-GKGKSIGRAPEASLQDKEGA [CC CKR-2 C-terminal PL peptide AA42L, biotinylated], for which the binding result is on record as “no binding”.

The target in another experiment is GST-PTN-4 PDZ domain fusion protein (protein-tyrosine phosphatase meg1 AA774-862; PDZ domain 1 of 1) (UniProt P08515 1-218 = GST). Description: A/G assays.
Sequence of GST-PTN-4 PDZ domain fusion protein (protein-tyrosine phosphatase meg1 AA774-862; PDZ domain 1 of 1) (P08515 1-218, tags or fused parts left off): as the sequence (P08515 1-218, tags or fused parts left off) above
For Biotin-CAISGTSSDRGYGSPRYAEV [CLASP-4 C-terminal PL peptide AA3L-V, biotinylated], the binding result was “no binding”.

Biotin-GKGKSIGRAPEASLQDKEGA [CC CKR-2 C-terminal PL peptide AA42L, biotinylated]: the binding result was “no binding”.

The next experiment addresses T5, GST-TAX40 PDZ domain fusion protein (human tax interaction protein 40 AA35-137; PDZ domain 1 of 1) (human, UniProt P08515 1-218 = GST).
T5 construct: also called TX 40
Description: A/G assays.
For Biotin-CAISGTSSDRGYGSPRYAEV [CLASP-4 C-terminal PL peptide AA3L-V, biotinylated], the binding result was “no binding”.

Regarding Biotin-GKGKSIGRAPEASLQDKEGA [CC CKR-2 C-terminal PL peptide AA42L, biotinylated], the binding result is “no binding”.

Another experiment addresses GST-MINT3 PDZ domain fusion protein (human MINT3 AA11-52; PDZ domain 1 of 1) (human, UniProt P08515 1-218 = GST). Description: A/G assays.
In the case of Biotin-CAISGTSSDRGYGSPRYAEV [CLASP-4 C-terminal PL peptide AA3L-V, biotinylated], the binding result is reported as “no binding”.

Regarding Biotin-GKGKSIGRAPEASLQDKEGA [CC CKR-2 C-terminal PL peptide AA42L, biotinylated], the binding result is reported as “no binding”.

Another experiment concerns the target GST-LIMK2 PDZ domain fusion protein (human LIM domain kinase 2 AA185-275; PDZ domain 1 of 1) (human, UniProt P08515 1-218 = GST). Description: A/G assays.
Take Biotin-CAISGTSSDRGYGSPRYAEV [CLASP-4 C-terminal PL peptide AA3L-V, biotinylated]: the binding result is “no binding”.

For Biotin-GKGKSIGRAPEASLQDKEGA [CC CKR-2 C-terminal PL peptide AA42L, biotinylated], the binding result was “no binding”.

The target of another experiment is T6, GST-CBP PDZ domain fusion protein (Cytohesin binding protein HE AA85-175; PDZ domain 1 of 1) (UniProt P08515 1-218 = GST).
T6 construct: also called Prot
T6 sequence (P08515 1-218, tags or fused parts left off): as the sequence (P08515 1-218, tags or fused parts left off) above
Description: A/G assays.
For the molecule Biotin-CAISGTSSDRGYGSPRYAEV [CLASP-4 C-terminal PL peptide AA3L-V, biotinylated], the binding result was “no binding”.

Take Biotin-GKGKSIGRAPEASLQDKEGA [CC CKR-2 C-terminal PL peptide AA42L, biotinylated]: the binding result is recorded as “no binding”.

For a further experiment, the target named is GST-LIM PDZ domain fusion protein (Human LIM protein AA29-112; PDZ domain 1 of 1) (human, UniProt P08515 1-218 = GST). Description: A/G assays.
Sequence of GST-LIM PDZ domain fusion protein (Human LIM protein AA29-112; PDZ domain 1 of 1) (P08515 1-218, tags or fused parts left off): as the sequence (P08515 1-218, tags or fused parts left off) above
Regarding Biotin-CAISGTSSDRGYGSPRYAEV [CLASP-4 C-terminal PL peptide AA3L-V, biotinylated], the binding result was “no binding”.

In the case of Biotin-GKGKSIGRAPEASLQDKEGA [CC CKR-2 C-terminal PL peptide AA42L, biotinylated], the binding result is listed as “no binding”.

The target in the next experiment is GST-PSD95 PDZ domain fusion protein (human post-synaptic density protein 95 AA387-724; PDZ domains 1-3 of 3) (human, UniProt P08515 1-218 = GST). Description: A/G assays.
With Biotin-GKGKSIGRAPEASLQDKEGA [CC CKR-2 C-terminal PL peptide AA42L, biotinylated], the binding result is recorded as “no binding”.

The target in the next experiment is T7, GST-TAX43 PDZ domain fusion protein (human tax interaction protein 43 AA15-85; PDZ domain 1 of 1) (human, UniProt P08515 1-218 = GST).
T7 construct: also called TX 43
T7 sequence (P08515 1-218, tags or fused parts left off): as the sequence (P08515 1-218, tags or fused parts left off) above
Description: A/G assays.
Biotin-CAISGTSSDRGYGSPRYAEV [CLASP-4 C-terminal PL peptide AA3L-V, biotinylated]: the binding result is recorded as “no binding”.

Take Biotin-GKGKSIGRAPEASLQDKEGA [CC CKR-2 C-terminal PL peptide AA42L, biotinylated]: the binding result is given as “no binding”.

In the next experiment the target is T8, GST-CASK PDZ domain fusion protein (CASK AA495-584; PDZ domain 1 of 1) (mouse, UniProt P08515 1-218 = GST).
T8 construct: also called mCASK
T8 sequence (P08515 1-218, tags or fused parts left off): as the sequence (P08515 1-218, tags or fused parts left off) above
Description: A/G assays.
Consider Biotin-CAISGTSSDRGYGSPRYAEV [CLASP-4 C-terminal PL peptide AA3L-V, biotinylated], for which the binding result is on record as “no binding”.

In the case of Biotin-GKGKSIGRAPEASLQDKEGA [CC CKR-2 C-terminal PL peptide AA42L, biotinylated], the binding result is on record as “no binding”.

The next experiment addresses GST-AF6 PDZ domain fusion protein (af-6 protein AA985-1077; PDZ domain 1 of 1) (UniProt P08515 1-218 = GST). Description: A/G assays.
For the molecule Biotin-GKGKSIGRAPEASLQDKEGA [CC CKR-2 C-terminal PL peptide AA42L, biotinylated], the binding result is on record as “no binding”.

The next experiment deals with T9, GST-KIAA0303 PDZ domain fusion protein (KIAA0303 AA652-742; PDZ domain 1 of 1) (UniProt P08515 1-218 = GST).
T9 construct: also called K303
T9 sequence (P08515 1-218, tags or fused parts left off): as the sequence (P08515 1-218, tags or fused parts left off) above
Description: A/G assays.
Biotin-CAISGTSSDRGYGSPRYAEV [CLASP-4 C-terminal PL peptide AA3L-V, biotinylated]: the binding result was “no binding”.

Biotin-GKGKSIGRAPEASLQDKEGA [CC CKR-2 C-terminal PL peptide AA42L, biotinylated]: the binding result is “no binding”.

A further experiment addresses T10, GST-MPP2 PDZ domain fusion protein (maguk p55 subfamily member 2 (DLG2) AA185-273; PDZ domain 1 of 1) (UniProt P08515 1-218 = GST).
T10 construct: also called MMP2
Description: A/G assays.
As to Biotin-CAISGTSSDRGYGSPRYAEV [CLASP-4 C-terminal PL peptide AA3L-V, biotinylated], the binding result was “no binding”.

As to Biotin-GKGKSIGRAPEASLQDKEGA [CC CKR-2 C-terminal PL peptide AA42L, biotinylated], the binding result is “no binding”.

A further experiment has as its target GST-DVL1 PDZ domain fusion protein (human dishevelled segment polarity protein homolog AA248-340); PDZ domain … (human, UniProt P08515 1-218 = GST). Description: A/G assays.
Take Biotin-CAISGTSSDRGYGSPRYAEV [CLASP-4 C-terminal PL peptide AA3L-V, biotinylated]: the binding result was “no binding”.

For Biotin-GKGKSIGRAPEASLQDKEGA [CC CKR-2 C-terminal PL peptide AA42L, biotinylated], the binding result is reported as “no binding”.

The target of the next experiment is GST-prIL16 PDZ domain fusion protein (putative interleukin 16 precursor AA170-383; PDZ domains 1-2 of 2) (UniProt P08515 1-218 = GST). Description: A/G assays.
Sequence of GST-prIL16 PDZ domain fusion protein (putative interleukin 16 precursor AA170-383; PDZ domains 1-2 of 2) (P08515 1-218, tags or fused parts left off): as the sequence (P08515 1-218, tags or fused parts left off) above
Turning to Biotin-CAISGTSSDRGYGSPRYAEV [CLASP-4 C-terminal PL peptide AA3L-V, biotinylated], the binding result is reported as “no binding”.

Turning to Biotin-GKGKSIGRAPEASLQDKEGA [CC CKR-2 C-terminal PL peptide AA42L, biotinylated], the binding result is listed as “no binding”.

The next experiment addresses T11, GST-KIAA0559 PDZ domain fusion protein (KIAA0559 AA766-870; PDZ1 of 1) (UniProt P08515 1-218 = GST).
T11 construct: also called K559
Description: A/G assays.
As for Biotin-CAISGTSSDRGYGSPRYAEV [CLASP-4 C-terminal PL peptide AA3L-V, biotinylated], the binding result is given as “no binding”.

In the case of Biotin-GKGKSIGRAPEASLQDKEGA [CC CKR-2 C-terminal PL peptide AA42L, biotinylated], the binding result was “no binding”.

For a further experiment, the target named is T12, GST-NeDLG PDZ domain fusion protein (presynaptic protein sao102, neuroendocrine-dlg; PDZ domains 1-2 of 3) (UniProt P08515 1-218 = GST).
T12 construct: also called NeDLG1
Description: A/G assays.
As to Biotin-GKGKSIGRAPEASLQDKEGA [CC CKR-2 C-terminal PL peptide AA42L, biotinylated], the binding result is given as “no binding”.

A further experiment has as its target T13, GST-RGS12 PDZ domain fusion protein (human regulator of G-protein signalling 12 AA35-103; PDZ domain 1 of 1) (human, UniProt P08515 1-218 = GST).
T13 construct: also called RSG12
Description: A/G assays.
Biotin-CAISGTSSDRGYGSPRYAEV [CLASP-4 C-terminal PL peptide AA3L-V, biotinylated]: the binding result is given as “no binding”.

For Biotin-GKGKSIGRAPEASLQDKEGA [CC CKR-2 C-terminal PL peptide AA42L, biotinylated], the binding result is on record as “no binding”.

Another experiment deals with T14, GST-KIAA0316 PDZ domain fusion protein (KIAA0316 AA197-284; PDZ domain 1 of 1) (UniProt P08515 1-218 = GST).
T14 construct: also called K316
T14 sequence (P08515 1-218, tags or fused parts left off): as the sequence (P08515 1-218, tags or fused parts left off) above
Description: A/G assays.
Biotin-CAISGTSSDRGYGSPRYAEV [CLASP-4 C-terminal PL peptide AA3L-V, biotinylated]: the binding result is “no binding”.

For the molecule Biotin-GKGKSIGRAPEASLQDKEGA [CC CKR-2 C-terminal PL peptide AA42L, biotinylated], the binding result is given as “no binding”.
